Patent US12138315 (Daiichi Sankyo, dated 2024)
Substitutions are numbered along the chain they refer to.

T1: human CD37 protein (human, UniProt P11049 1-281)
T1 construct: Four-pass transmembrane tetraspanin
T1 sequence: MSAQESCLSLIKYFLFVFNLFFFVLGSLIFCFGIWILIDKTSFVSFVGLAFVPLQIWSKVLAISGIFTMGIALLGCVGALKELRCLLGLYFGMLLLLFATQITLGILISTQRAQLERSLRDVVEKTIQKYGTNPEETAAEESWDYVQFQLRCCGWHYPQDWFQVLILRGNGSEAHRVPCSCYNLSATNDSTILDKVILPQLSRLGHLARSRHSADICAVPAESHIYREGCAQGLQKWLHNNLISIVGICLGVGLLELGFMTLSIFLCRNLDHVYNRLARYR

B1: hmAb-H11L11-DXd (antibody, V domains shown)
VH: EVQLVQSGAEVKKPGASVKVSCKASGYSFTDYNMYWVRQAPGQSLEWMGYIDPYNGDTTYNQKFQGRVTITADTSTSTAYMELSSLRSEDTAVYYCARSPYGHYAMDYWGQGTLVTVSS
VL: DIQMTQSPSSLSASVGDRVTITCKASQDVSTAVDWYQQKPGKAPKLLINWASTRHTGVPSRFSGSGSGTDFTLTISSLQPEDFATYYCRQHYSTPFTFGQGTKVEIKR
modifications: drug linker on sulfhydryl groups of reduced interchain disulfide cysteines; positions not given; drug linker (maleimidocaproyl-GGFG-DXd, exatecan derivative) on sulfhydryl groups of reduced interchain disulfide cysteines by thioether bond; average number of conjugated drug molecules per antibody 7.4 to 7.7 (common procedure F); positions not given
notes: also called hmAb-H11L11-ADC
B2: hmAb-H11L11 (antibody, human IgG1, kappa, V domains shown)
VH: B1 VH
VL: B1 VL
notes: Unconjugated humanized IgG1 kappa antibody derived from mouse HH1; also called anti-CD37 humanized antibody having hmAb-H11 as a heavy chain and hmAb-L11 as a light chain
B3: hmAb-H11aL11 (antibody, human IgG1, kappa, V domains shown)
VH: B1 VH with T74K, T76K
VL: B1 VL
notes: Unconjugated humanized IgG1 kappa antibody; also called anti-CD37 humanized antibody having hmAb-H11a as a heavy chain and hmAb-L11 as a light chain
B4: hmAb-H551L11 (antibody, human IgG1, kappa, V domains shown)
VH: B1 VH with I70M, A72R, T76S, S85R, E89D, L114T
VL: B1 VL
notes: Unconjugated humanized IgG1 kappa antibody; also called anti-CD37 humanized antibody having hmAb-H551 as a heavy chain and hmAb-L11 as a light chain
B5: hmAb-H11aL11-DXd (antibody, human IgG1, kappa, V domains shown)
VH: B1 VH with T74K, T76K
VL: B1 VL
modifications: drug linker on sulfhydryl groups of reduced interchain disulfide cysteines; positions not given; drug linker (maleimidocaproyl-GGFG-DXd, exatecan derivative) on sulfhydryl groups of reduced interchain disulfide cysteines by thioether bond; average number of conjugated drug molecules per antibody 7.6 (common procedure F); positions not given
notes: also called hmAb-H11aL11-ADC
B6: hmAb-H551L11-DXd (antibody, human IgG1, kappa, V domains shown)
VH: B1 VH with I70M, A72R, T76S, S85R, E89D, L114T
VL: B1 VL
modifications: drug linker on sulfhydryl groups of reduced interchain disulfide cysteines; positions not given; drug linker (maleimidocaproyl-GGFG-DXd, exatecan derivative) on sulfhydryl groups of reduced interchain disulfide cysteines by thioether bond; average number of conjugated drug molecules per antibody 7.8 (common procedure F); positions not given
notes: also called hmAb-H551L11-ADC
B7: hmAb-H541L11 (antibody, human IgG1, kappa, V domains shown)
VH: B1 VH with I70M, A72R, T76I, S85R, E89D, L114T
VL: B1 VL
notes: Unconjugated humanized IgG1 kappa antibody; also called anti-CD37 humanized antibody having hmAb-H541 as a heavy chain and hmAb-L11 as a light chain
B8: hmAb-H541L11-DXd (antibody, human IgG1, kappa, V domains shown)
VH: B1 VH with I70M, A72R, T76I, S85R, E89D, L114T
VL: B1 VL
modifications: drug linker on sulfhydryl groups of reduced interchain disulfide cysteines; positions not given; drug linker (maleimidocaproyl-GGFG-DXd, exatecan derivative) on sulfhydryl groups of reduced interchain disulfide cysteines by thioether bond; average number of conjugated drug molecules per antibody 7.8 (common procedure F); positions not given
notes: also called hmAb-H541L11-ADC

target: T1, human CD37 protein; experiment: flow cytometry on OCI-LY7 cells, FITC anti-human IgG Fc secondary
Protocol: 4)-1 Evaluation of Binding Activity of Humanized Anti-CD37 Antibody-Drug Conjugate The binding activity of the four antibody-drug conjugates (clone names: hmAb-H11L11-DXd, hmAb-H541L11-DXd, hmAb-H551L11-DXd, and hmAb-H11aL11-DXd) produced in Example 2 was evaluated by flow cytometry. CD37-positive human diffuse large B-cell lymphoma cell line OCI-LY7 (DSMZ) cultured in IMDM medium supplemented with 20% FBS under conditions of 37° C. and 5% CO_2 were recovered and centrifuged. After removal of the supernatant, the cells were suspended by the addition of each of the four antibody-drug conjugates or a negative control antibody-drug conjugate (hmAb-IgG1-DXd) produced using human IgG at each concentration. The cells were left standing at 4° C. for 1 hour. The cells were washed twice with PBS supplemented with 5% FBS, and then suspended by the addition of FLUORESCEIN (FITC)-AffiniPure F(ab')2 Fragment Goat Anti-Human IgG, Fcγ Fragment Specific (Jackson ImmunoResearch Laboratories, Inc.) that had been 100-fold diluted with PBS supplemented with 5% FBS. The cells were left standing at 4° C. for 30 minutes. The cells were washed twice with PBS supplemented with 5% FBS, followed by detection using a flow cytometer (BD LSRFortessa TM X-20, BD Biosciences). The data was analyzed using FlowJo (Tree Star, Inc.). In FIG. 6, the abscissa depicts antibody concentration (μg/ml), and the ordinate depicts the amount of the antibody bound by MFI (mean fluorescence intensity).

binding result | Binder
binds | B1
binds | B2
binds | B3
binds | B4
binds | B5
binds | B6
binds | B7
binds | B8
